Results as given in patent US9823254B2, “Reversible chemoenzymatic labeling of native and fusion carrier protein motifs” (The Regents of the University of California, priority 2012, dated 2017).

What was measured:
E. coli AcpP = E. coli AcpP (Escherichia coli, UniProt P0A6A8); conditions: FAS; crypto-CP (coumarin-PPant), overnight, 37° C., 1 μM AcpH
Description: (§1) Unless otherwise noted, all coumarin-PPant labeling proceeded as follows: apo-carrier protein or peptide at 50-200 μM were labeled in 50 mM Na-HEPES pH 7.5, 10 mM MgCl2, 8 mM ATP, 0.1 μM MBP-CoaA/D/E, 0.1 μM native Sfp, and 1.1 equivalents of coumarin-pantetheine at 37° C. overnight. Crypto-protein samples were repurified using standard IMAC techniques in pH 8 lysis buffer with Ni-NTA resin, and spin-concentrated/buffer exchanged to remove imidazole and concentrate with 0.5 mL 3 kDa MWCO cellulose filters. Crypto-peptide samples were purified with HPLC, lyophilized, and redissolved in 50 mM TrisCl pH 8.0 prior to analysis.
(§2) Following AcpH treatment, an equal volume of 2×SDS-PAGE loading dye was added to crypto-carrier proteins samples and heated 5 min at 90° C., and run on 12% or 15% SDS-PAGE. Gels were fixed in 50/40/10% water/methanol/acetic acid for 30 minutes, and washed with water three times before UV imaging. Holo-carrier protein reactions were analyzed with Urea-PAGE as previously described.^6 All protein gels were Coomassie stained for evaluating total protein. Crypto-peptides were evaluated on Urea-PAGE, and were imaged immediately after running with no gel fixing.

P. aeruginosa AcpP = P. aeruginosa AcpP (Pseudomonas aeruginosa, UniProt O54439); conditions: FAS; crypto-CP (coumarin-PPant), overnight, 37° C., 1 μM AcpH
Description: as §1, §2

S. oneidensis AcpP = assay: AcpH qualitative CP activity, holo-SoAcpP, Urea-PAGE; format: biochemical; conditions: FAS, Urea-PAGE gel-shift, shorter timescale
A. parasiticus PksA = target: T1, A. parasiticus PksA (Aspergillus parasiticus, UniProt Q12053); assay: AcpH qualitative CP activity, gel-based, crypto-CP; format: biochemical; conditions: PKS; crypto-CP (coumarin-PPant), overnight, 37° C., 1 μM AcpH
T1 construct: made in house

L majuscula JamC = target: T2, L majuscula JamC (Moorena producens, UniProt Q6E7K7); assay: AcpH qualitative CP activity, gel-based, crypto-CP; format: biochemical; conditions: PKS; crypto-CP (coumarin-PPant), overnight, 37° C., 1 μM AcpH
T2 construct: made in house

crypto-FITC-YbbR (3) = target: T3, crypto-FITC-YbbR (3) (Bacillus subtilis, UniProt O34659); assay: FRET-quench microwell AcpH kinetics; format: biochemical; conditions: 37° C., FRET-quench microwell plate assay, [AcpH] 1 μm
T3 construct: made in house; host or cells: enzymatic labelling of FITC-ybbR peptide with Sfp and rhodamine-CoA
T3 sequence (O34659 whole entry, looked up): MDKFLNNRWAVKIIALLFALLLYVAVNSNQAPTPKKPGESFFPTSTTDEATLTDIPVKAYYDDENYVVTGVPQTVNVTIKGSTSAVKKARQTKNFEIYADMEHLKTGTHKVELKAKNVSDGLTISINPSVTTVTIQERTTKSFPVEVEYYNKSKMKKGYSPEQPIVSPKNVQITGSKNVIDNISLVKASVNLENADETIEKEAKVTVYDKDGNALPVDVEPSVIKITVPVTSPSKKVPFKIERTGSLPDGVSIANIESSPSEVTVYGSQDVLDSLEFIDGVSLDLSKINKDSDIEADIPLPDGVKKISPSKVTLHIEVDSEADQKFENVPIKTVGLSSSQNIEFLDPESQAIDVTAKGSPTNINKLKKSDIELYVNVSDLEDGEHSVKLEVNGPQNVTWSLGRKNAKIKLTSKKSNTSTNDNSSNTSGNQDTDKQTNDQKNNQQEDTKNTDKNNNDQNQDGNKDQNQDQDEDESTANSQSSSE
Description: Preparation of rhodamine-labeled FITC-ybbR proceeded via reaction of 200 μM FITC-ybbR with 200 μM rhodamine WT-CoA synthesized as described previously^33 with 1 μM Sfp in 50 mM HEPES pH 7.5 and 10 mM MgCl2 for 2 hours at 37° C.
Rhodamine-labeled FITC-Ybbr as well as standard 1:1 apo-FITC-ybbR:rhodamine-CoA was subjected to an 11-point serial dilution in 50 mM TrisCl pH 8.0 to achieve final concentrations of 400-0.4 μM. […] Total reaction volumes were 50 μL and utilized a 96-well Costar 3694 plate (Corning, Lowell, Mass.). Following mixing, reactions were centrifuged for 2 minutes at 1500 rpm, and incubated at 37° C. over 4 hours in a HTS 7000 plus Bioassay Reader (Perkin Elmer, Waltham, Mass.) in kinetic mode. Comparison of enzyme reactions to buffer blank and 1:1 apo-FITC-ybbR:rhodamine-CoA standard allowed calculation of product formation and determination of Michaelis-Menten kinetics using GraphPad Prism.

B1: PaAcpH: acyl carrier protein hydrolase (AcpH) from P. aeruginosa PAO1, NP13 253043.1 (protein)
chain: MNYLAHLHLGGPQPAQLLGSLYGDFVKGRLQGQWPDEIERAIQLHRRIDAFTDSHPLVHAAKRRFPLERRRFAGVLLDVFFDHCLARDWNDYADEPLPQFVERVYGTLRTASPLPERLARIAPRMAAQDWLGSYREFAVLREVLGGMSRRLSRPHLLDGSWEELAQRYDDLSADFRAFYPQLQAFALSQR
- AcpH qualitative CP activity (E. coli AcpP): YES
- AcpH qualitative CP activity (P. aeruginosa AcpP): YES
- AcpH qualitative CP activity (S. oneidensis AcpP): YES^†
- AcpH qualitative CP activity (A. parasiticus PksA): YES
- AcpH qualitative CP activity (L majuscula JamC): YES
- Km (crypto-FITC-YbbR (3)): 177 µM
- Vmax (crypto-FITC-YbbR (3)): 0.008 ± 0.016 min⁻¹
- kcat (crypto-FITC-YbbR (3)): 0.008 ± 0.016 min⁻¹
